Measured values from PMC5927464 (2018).

T1: mouse RNase L (Mus musculus (mouse)) (UniProt Q05921)
T1 sequence: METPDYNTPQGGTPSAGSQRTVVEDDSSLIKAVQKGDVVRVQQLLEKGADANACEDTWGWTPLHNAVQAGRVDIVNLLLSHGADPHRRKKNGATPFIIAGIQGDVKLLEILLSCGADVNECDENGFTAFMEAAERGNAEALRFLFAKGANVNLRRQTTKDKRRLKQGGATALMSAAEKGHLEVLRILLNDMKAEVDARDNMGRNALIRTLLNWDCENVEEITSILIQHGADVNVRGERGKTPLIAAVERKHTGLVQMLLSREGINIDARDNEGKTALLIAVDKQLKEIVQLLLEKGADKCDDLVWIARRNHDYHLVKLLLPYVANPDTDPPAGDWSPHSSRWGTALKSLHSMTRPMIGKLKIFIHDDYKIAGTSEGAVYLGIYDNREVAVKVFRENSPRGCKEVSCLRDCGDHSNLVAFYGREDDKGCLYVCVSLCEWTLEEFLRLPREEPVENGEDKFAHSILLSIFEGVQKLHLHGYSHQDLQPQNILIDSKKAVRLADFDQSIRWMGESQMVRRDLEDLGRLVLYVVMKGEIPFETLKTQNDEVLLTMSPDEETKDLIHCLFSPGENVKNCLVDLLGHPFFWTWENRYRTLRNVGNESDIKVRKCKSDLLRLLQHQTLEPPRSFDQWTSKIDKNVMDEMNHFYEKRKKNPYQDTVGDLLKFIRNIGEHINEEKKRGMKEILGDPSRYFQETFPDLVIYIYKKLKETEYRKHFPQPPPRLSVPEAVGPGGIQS

T2: purified recombinant GST-tagged murine RNase L (mouse, UniProt Q05921 1-735)
T2 chain: T1 sequence

B1: purified recombinant mouse RNase L (enzyme)
chain: T1 sequence
B2: (His)6-L* (purified recombinant L*DA) (natural protein)
chain: MDTQMCALFAQPLTLLPDLNICSWQTVNGSQRTFFVWTWTMTSSGLRTRAINLKQWNGLTYRSYAILSWNPRETPLHLTRVTPSPQVTKGSLLTTSIPINTKIQLICLPAVAMLATPPKTTDNCRTSWAALQMLLLLWHLSSWIKTQRRWRISLTE

Assays:
[1] = target: T1, mouse RNase L (Mus musculus (mouse)); assay: SPR competition; conditions: 2'-5' phosphodiester linkages; 5'-triphosphate; trimer p3A2'p5'A2'p5'A assumed (oligomer length used in SPR not stated); SPR on Biacore 3000; HBS-P SPR buffer (0.005% surfactant P20), 10 ul/min, 3 min association, 5 min dissociation, 25 C stated for GST-RNase L capture; 1:1 …
[2] = target: B2; assay: SPR; immobilized L*
[3] = target: (His)6-L* (purified recombinant L*DA) (Theiler's murine encephalomyelitis virus, strain DA); assay: SPR; Biacore 3000; (His)6-L* immobilized on Ni-NTA chips, mouse or human RNase L injected; 10 μl/min, 3 min association, 5 min dissociation; 1:1 Langmuir model, global fitting
[4] = target: B2; assay: SPR; immobilized L*
[5] = target: T2, purified recombinant GST-tagged murine …; assay: SPR; immobilized mouse RNase L
[6] = target: T2, purified recombinant GST-tagged murine …; assay: SPR; immobilized mouse RNase L
[7] = target: T2, purified recombinant GST-tagged murine …; assay: SPR; immobilized mouse RNase L

AAA [2-5A (unlabeled)] showed an IC50 [1] of 0.0132 µM.

B1 gave a Ka [2] of 760000 M⁻¹, a Kd [3] of 1.3 µM and a koff [4] of 0.0027 s⁻¹.

With B2 the Kd [5] was 0.49 µM, the koff [6] was 0.0015 s⁻¹ and the Ka [7] was 2e+06 M⁻¹.
